{"source": "the nanobody polyreactivity screen of Harvey et al. (2022)"}
{"experiment": "yeast display, Sf9 membrane polyspecificity reagent, FACS + sequencing; frameworks hold sequencing errors", "procedure,_shortened": "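Galactose-induced (36–48 hours) yeast carrying a synthetic nanobody display library were exposed to 10% biotinylated, detergent-solubilized Sf9 membrane reagent at 4 °C for 1 hour. FACS followed streptavidin microbead enrichment, using low and high (top ~1%) gates for expression (anti-HA) and reagent binding (streptavidin). Colony PCR, MiSeq 2 × 250 sequencing and CDR-length filtering followed. Labels for polyreactivity reflect the gate of origin.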"}
{"sequence": "QVQLVDSGGGLVQAGGSLRLSCAASGRIFDRNAMGWYRQAPGKERDLVARIDPGDDTNYADSVKGRFTISRDNAKNTVYLQMNSQKPEDTAVYYCATDPDYVLYRTAYYEYDYWGQGTQVTVSS", "polyreactivity (PSR sort gate)": "low polyreactivity"}
{"sequence": "QVQLVDSGGGLVQAGGSLRLSCAASGRIFGQYAMGWYRDATGKERELVAAISWRGGTTYYADSVKGRFTISRDNAKNTVYLQMNSLKPEDTAVFYCNADVWVYPYDYWGQGTQVTVSS", "polyreactivity (PSR sort gate)": "low polyreactivity"}
{"sequence": "QVQLVDSGGGLVQAGGSLRLSCAASGRIFKWTAMGWYRPAPGKERELVAAIRWSSGRTYYADSVKGRFTISRDNAKNTVYLQMNSLKPEDTAVSYCAANNGYGMDYWGQGTQVTVSS", "polyreactivity (PSR sort gate)": "high polyreactivity"}
{"sequence": "QVQLVDSGGGLVQAGGSLRLSCAASGRIFRPYAMGWYREAPRKERELVAAISFSGGSTYYADSVKGRFTISRDNAKNTVYLQMNSVKPEDTAVYYCNAVFINKYGKYGDWGQGTQVTVSS", "polyreactivity (PSR sort gate)": "high polyreactivity"}
{"sequence": "QVQLVDSGGGLVQAGGSLRLSCAASGRIFSRYAMGGYRQAPGKERQLVAAITIGGRTNYADSVKGRFTFSRDNAKNTVYLQMNSLKPEDSAVYYCAVVLYTRYPPRVRYYYWGQGTQVTVSW", "polyreactivity (PSR sort gate)": "high polyreactivity"}
{"sequence": "QVQLVDSGGGLVQAGGSLRLSCAASGRIFYQNAMGWYRQAPGKETELVADNSSGGSTYYADSVKGRFTISRDNAKNTVYLQMNSLKPEDNAVYYCNTPSGPGTVGSYRRKWYGYWGQGTQLTVSS", "polyreactivity (PSR sort gate)": "low polyreactivity"}
{"sequence": "QVQLVDSGGGLVQAGGSLRLSCAASGRIFYYYAMGWYRQAPGKEREFVAAINSRDGSTNYADSVKGRFTISRDNAKNTVYLQMNSLKPEDTAVYYCAAEGYRSWRGLRSRYYYWGQGTQVTVSS", "polyreactivity (PSR sort gate)": "high polyreactivity"}
{"sequence": "QVQLVDSGGGLVQAGGSLRLSCAASGRIIGGKAMGWYRLAPGKVREFVAAIRASGGSPHYADSVKGRFTISRDNAKNTVYLQRNSLTPEDTEVYYCNALSRNTHLYDYWGQGTHVTVSS", "polyreactivity (PSR sort gate)": "high polyreactivity"}
{"sequence": "QVQLVDSGGGLVQAGGSLRLSCAASGRPSVLMLMGWYRQAPGKERELVAAIDDSTDTTYYADSVKGRFTISRDNAKNTVYLQMNSLKPEDTAVYYCAAEEGYVKFSGSWSYGYDYWGQGTQVTVSS", "polyreactivity (PSR sort gate)": "high polyreactivity"}
{"sequence": "QVQLVDSGGGLVQAGGSLRLSCAASGRTFAYNDMGWYRQAPGKERELVAAISWSDGTTYYADSVKWRFTISRDNAKNTVYLQMNRLKPEDTAVYYCAAVSIYWGQGTQVTVSS", "polyreactivity (PSR sort gate)": "low polyreactivity"}
{"sequence": "QVQLVDSGGGLVQAGGSLRLSCAASGRTFGVYAIGWYRQAPGKERELVAAITSGGSTNYADSVKGLLTISRDNANNTVYLQMNSLKPEDTAVYYCAARYKAYWQLYDYWGQGTQVTVSS", "polyreactivity (PSR sort gate)": "high polyreactivity"}
{"sequence": "QVQLVDSGGGLVQAGGSLRLSCAASGRTFKRYDMGWYRQAPGKEREFVAAISWTGGSTYYADTVKGRFTISRDHAKNSVYLQMNSLKPEDTAVYYCARKFLWQGFVYWGQGTQVTVSS", "polyreactivity (PSR sort gate)": "low polyreactivity"}
{"sequence": "QVQLVDSGGGLVQAGGSLRLSCAASGRTFKRYDMGWYRQAPRKEREFVAAISWTGGSTYYADTVKGRFTISRDNEKNTVYLQMNSLKPEDTAVYYCARKFLWKGFDYWGQGTQVTVSS", "polyreactivity (PSR sort gate)": "low polyreactivity"}
{"sequence": "QVQLVDSGGGLVQAGGSLRLSCAASGRTFNWYAMGWYRQETRKERELVAAISSTGGSTYYADSVKGRFTISRDNAKNTVYLQMNSLKPEDTAVYYCAAALPGYGDYYYWGQGTQVTVSS", "polyreactivity (PSR sort gate)": "high polyreactivity"}
{"sequence": "QVQLVDSGGGLVQAGGSLRLSCAASGRTFQFYVMGWYRQAPGKERELVASIRSGGSTNYADSVKGRFTISRDNAKNTVYLQMNSLKPEDTAVYYCATESYPADQDIPGSDYWGQGTQVTVSS", "polyreactivity (PSR sort gate)": "low polyreactivity"}
{"sequence": "QVQLVDSGGGLVQAGGSLRLSCAASGRTFRYYAMGWYRQAPGKERELVATITGSGGSTYYADSVKGRFTISRDNAKNTVYLQLISLKPEDTAVYYCNARKVRYPYRWYDYWGQGTQVTVSS", "polyreactivity (PSR sort gate)": "high polyreactivity"}
{"sequence": "QVQLVDSGGGLVQAGGSLRLSCAASGRTFSGNAMGWYRQAPGKERELVAAIRGGGSTYYADSVKGRFTISRDNAKNTVYLQMNSLKPEDTAVYYCAGRSQVYAPAYYRSKYDYWGQGTQVTVSS", "polyreactivity (PSR sort gate)": "high polyreactivity"}
{"sequence": "QVQLVDSGGGLVQAGGSLRLSCAASGRTFVPYAMGWYRQAPGKERELVAAISSGGDTNYADSVKGRFTISRDNAKNTVYLQMTSLKPEDTAVYYCNADSYYYVYGYDMGYWGQGTQVTVSS", "polyreactivity (PSR sort gate)": "low polyreactivity"}
{"sequence": "QVQLVDSGGGLVQAGGSLRLSCAASGRTFYDNDMGWYRQAPGKERELVARIRRGGNTKYADSVKGRFTISRDNAKNTVYLQMNSLKPEDTAVYYCNRDYGSKIYDYWGQGSQVTVSS", "polyreactivity (PSR sort gate)": "low polyreactivity"}
{"sequence": "QVQLVDSGGGLVQAGGSLRLSCAASGRTIRYNAMGWYRQAPGKERELVAVINSNGGSTYYADSVKGRFTISRDNSKNTVYLQMNSLKPEDTAVYYCAADYIRIQEYDYWGQGTQVTVSS", "polyreactivity (PSR sort gate)": "low polyreactivity"}
{"sequence": "QVQLVDSGGGLVQAGGSLRLSCAASGRTISGYAMGWYRQAPGKERELVAAITSRGGRTYYADSVKGRFTISRDNAKNTVYLQMNSLKPEDTAVYYCAAYRRLTLYDYWGQGTQVTVSS", "polyreactivity (PSR sort gate)": "high polyreactivity"}
{"sequence": "QVQLVDSGGGLVQAGGSLRLSCAASGRTIVYYAMGWYRQAPGKERELVAAIRSGGSTNYADSVKGRFTISRDNAKNTVYLQMNSLKPEDTAVYYCNAVHYYYYKGDYWGQGTQVTVSS", "polyreactivity (PSR sort gate)": "high polyreactivity"}
{"sequence": "QVQLVDSGGGLVQAGGSLRLSCAASGRTLAFNAMGWYRQAPGKERELVAVIRNGTSTNYADSVKGRFTISRDNAKNTVYLQMNSLKPEDTGVYYCNVPYYLPSYLSGYDYWGQGTQVTVSS", "polyreactivity (PSR sort gate)": "low polyreactivity"}
{"sequence": "QVQLVDSGGGLVQAGGSLRLSCAASGRTLAGYVMGWYRQAPGKERELVATISNGGSTYYADSVKGRFTISRDNAKNTVYLQMNSLKPEDTAVYYCNRYWYRKHSTDPPVRYRPVGYWGQGTQVTVSS", "polyreactivity (PSR sort gate)": "high polyreactivity"}
{"sequence": "QVQLVDSGGGLVQAGGSLRLSCAASGRTLSFYGMGWYRQAPGKERELVAAISSSGSRTYYADSVKGRFTISRDNAKNTVYLQMNSLKPEDTAVYYCNALRIYHHYEYDYWGQGTQVTVSS", "polyreactivity (PSR sort gate)": "high polyreactivity"}
{"sequence": "QVQLVDSGGGLVQAGGSLRLSCAASGSIFDANAMGWYRQAPGKERELVAAITFDSGSTHYADSVKGRFTISRDNAQNTVYLQMNSLKPEDTAVYYCAVRDFNSDYDYWGQGTQVTVSS", "polyreactivity (PSR sort gate)": "low polyreactivity"}
{"sequence": "QVQLVDSGGGLVQAGGSLRLSCAASGSIFHFYAMGWYREATGKERELVAAITRGGGSTYYADSVKGRFTISRDNAKNTVYLQMNSLKPEDTAVYYCAAYKYYRYNYWGQGTQVTVSS", "polyreactivity (PSR sort gate)": "high polyreactivity"}
{"sequence": "QVQLVDSGGGLVQAGGSLRLSCAASGSIFKTYAMGWYRQAPGKERELVATNTRRTGSTYYADSVKGRFTISRDNAMNSVYLQMNSLKPEDPAVYYCAAELYPSWSHTVFHGYNYWGQGTQVTVSS", "polyreactivity (PSR sort gate)": "high polyreactivity"}
{"sequence": "QVQLVDSGGGLVQAGGSLRLSCAASGSIFPYNDMGWYRKAPGKERELVARITNGGSTNYADSVKGRFTISRDNAKNTVYLQMNSLKPEDTAVYYCNKDGTQEFAPDGHEYWGQCTQVTVSS", "polyreactivity (PSR sort gate)": "low polyreactivity"}
{"sequence": "QVQLVDSGGGLVQAGGSLRLSCAASGSIFYHNAMGWSRQAPGKERELVAAITWSGSTTYYADSVKGRFTISRDNAKNTVYLQMNRLKPEDTAVYYCAVDIYYYSNVHYYYWGQGTQVTVSS", "polyreactivity (PSR sort gate)": "low polyreactivity"}
{"sequence": "QVQLVDSGGGLVQAGGSLRLSCAASGSIITYYAMGWYRQAPGKERELVAGISRRGASTYYADSVKGRFTISRDNAKNTVYLQMNSLNPEDTEVYYCAAVPYYYYGFDYWGQGTQVTVSS", "polyreactivity (PSR sort gate)": "high polyreactivity"}
{"sequence": "QVQLVDSGGGLVQAGGSLRLSCAASGSILGAKDMGWFRQAPGKERELVATITWNGGGTSYADSVKGRFTISRDNAKNTVYLQMNSLKAEDTAVYYFNALGRDSQALYRYRLVGEFGYWGQGSQVTVSS", "polyreactivity (PSR sort gate)": "low polyreactivity"}
{"sequence": "QVQLVDSGGGLVQAGGSLRLSCAASGSILYHYAMGWYRQAPGKERELVAGISWRGGSTYYADSVKGRFTISRDNAKNTVYLQMNSLKPEATAVYYCATQRYPYRFYAFQYYYWGQGTQVTVSS", "polyreactivity (PSR sort gate)": "low polyreactivity"}
{"sequence": "QVQLVDSGGGLVQAGGSLRLSCAASGSNITRKAMGWYRQAPGKERELVAAIRKIGGRTYYADSVKGRFTISRDNAKNTVYLQMNSLKPEDTAVYYCAAGGSYYRDDYWGQGTQVTVSS", "polyreactivity (PSR sort gate)": "low polyreactivity"}
{"sequence": "QVQLVDSGGGLVQAGGSLRLSCAASGSTFAFYAMVWSRQAPGKERELVAANSSNGVSTYYADSVKGRFTISRDNAKNTVYLQMKSLKPEDTAVYYCARDVYASPRLYTSRYNYWGQGTQVTVSS", "polyreactivity (PSR sort gate)": "low polyreactivity"}
{"sequence": "QVQLVDSGGGLVQAGGSLRLSCAASGSTFAPYAMGWSRQAPGKERELVAAISWGGGSTYYADSVKGRFTISRDNAKNTVYLQMNSLKPEDTAVYYCAADYAEYSAEWYEDWGQGTQVTVSS", "polyreactivity (PSR sort gate)": "high polyreactivity"}
{"sequence": "QVQLVDSGGGLVQAGGSLRLSCAASGSTFFFNDLGWSRQAPGKESEFVAGISSSGGSTHYADSVKGRFTISRDKAKNTVYFQMNSLKPEDTAVYYCNTLRNWYYQFDFNYWGQGTQVTVSS", "polyreactivity (PSR sort gate)": "low polyreactivity"}
{"sequence": "QVQLVDSGGGLVQAGGSLRLSCAASGSTFGGNAMGWYRQAPGKERELVAAITGSGGRTFYADSVKGRFTISRDNAKNTVYLQMNSLNPEDTAVYYCAADSYIYSVNYWGQGTQLTVSS", "polyreactivity (PSR sort gate)": "low polyreactivity"}
{"sequence": "QVQLVDSGGGLVQAGGSLRLSCAASGSTFIYYAMGWYRQAPGKEREFVAAISYRGGSTYYADSVKGRFTISRDNAKNTVYLQMNSLKPEDTAVYYCAASYRKWNDYWGQGTQVTVSS", "polyreactivity (PSR sort gate)": "high polyreactivity"}
{"sequence": "QVQLVDSGGGLVQAGGSLRLSCAASGSTFPDNAMGWYRQAPGKERALVAAIRWTGGSTYYADSVKGRFTISRDNAKNTVYLQMNSLKPEDTAVYYCNTAYTVSWRSPYDYWGQGTQVTVSS", "polyreactivity (PSR sort gate)": "high polyreactivity"}
{"sequence": "QVQLVDSGGGLVQAGGSLRLSCAASGSTFRRYAMGWYRQAPGKERELVAAITTADITNYADSVKGRFTISRDNAKNTVYLQMNSLKPEDTAVYYCAAPVAYRGSRNFIYRYNYWGQGTQVTVSS", "polyreactivity (PSR sort gate)": "high polyreactivity"}
